Experimental data published in US20230094867A1 (Janssen / Centocor, published 2023).
“And” between values parts separate entries of the source, which are not always exact repeats. Equal values may be shown once.

Legend:
[1] = target: T1, CD79b CAR (CD9B441-HL) expressed on SupT1 cells; assay: flow cytometry on live CD9B441-HL SupT1 cells with directly rPE-conjugated antibody; PE median fluorescence intensity
T1 construct: Chimeric antigen receptor with the CD9B441 scFv in VH-VL order; also called SupT1-CD9B441-HL; CD9B441-HL SupT1 cells

[2] = target: T2, CD9B503 (CD9B441-HL-scFv-Fc bivalent fusion protein) (Biotinylated in the panning and MSD screening assays of Example 1.); assay: SPR (Biacore), mAb captured on anti-mouse Fc chip, scFv-Fc antigen 100 nM to 0.16 nM in solution
T2 construct: also called CD9B441-derived scFv-fusion protein
Experimental: (§1) Biacore system (Cytiva) was used to measure bio-molecular interactions by surface plasmon resonance (SPR). Anti-Mouse Fc antibody directly immobilized on a CMS sensor chip. Library Antibodies (Mouse IgG2a) diluted to 1 ug/ml to reach approximately 20-60 RU. Antigens (scFv Fc fusions) are associated at 100 nM to 0.16 nM, 1:5 dilutions for 3 minutes. Dissociation for 30 mins. The results of the assay (Table 1 below) show the nanomolar dissociation constant of A003B192 and A003B274 with CD9B503 (CD9B441-HL-scFv-Fc bivalent fusion protein) and CD9B574 (CD9B441-LH-scFv-Fc monovalent fusion protein).

[3] = target: T3, CD9B574 (CD9B441-LH-scFv-Fc monovalent fusion protein); assay: as above
T3 construct: Described only as CD9B441-LH-scFv-Fc monovalent fusion protein
Experimental: as §1

[4] = target: T1, CD79b CAR (CD9B441-HL) expressed on …; assay: flow cytometry on live CD9B441-HL SupT1 cells, detected with PE goat anti-mouse IgG; PE median fluorescence intensity
Experimental: SupT1 cells expressing CD9B441-HL were compared to parental CAR-SupT1 cells. Cells (200,000 cells/well) were stained with LIVE/DEAD Fixable Near-IR viability dye (Life Technologies cat #L10119) and then incubated with increasing concentrations of A003B192 and A003B274 for 45 minutes on ice. In addition, both anti-idiotypic antibodies were tested in the presence of Fc-CD9B441-HL fusion protein to assess the specificity of A003B192 and A003B274 binding to CD9B441-HL CAR. Following incubation, the samples were washed with BSA stain buffer (BD Biosciences cat #554657) and stained with PE-goat anti-mouse IgG polyclonal antibody (Biolegend cat #405307) to detect bound antibody on live CAR+SupT1 cells. After incubation, washing, and fixation (Cytofix, BD Biosciences cat #554655), the samples were acquired on a 10 color FACSCanto II (BD Biosciences) flow cytometer. Analysis was done using FlowJo (TreeStar) and the PE median fluorescent intensity of live CAR+SupT1 cells plotted in FIG. 3A. No binding was detected on CAR-SupT1 parental cells (data not shown) or in the presence of excess Fc-CD9B441-HL CAR fusion protein.

[5] = target: T2, CD9B503 (CD9B441-HL-scFv-Fc bivalent …); assay: MSD electrochemiluminescent immunoassay, crude Fab lysate on biotinylated scFv-Fc on streptavidin plate
Experimental: The monoclonal Fab lysates prepared from the enriched Fab libraries were screened in Meso Scale Discovery (MSD) based electro-chemiluminescent immunoassays (ECLIA) for binding to CD9B503 but not to a similar negative control scFv fusion protein CD9B504 (CD9B449-HL-scFv Fc). Biotinylated ScFv-Fc fusion antigens, target antigen CD9B503 or negative control scFv fusion protein counter screening reagent CD9B504, were diluted to a concentration of 2.5 nM in SuperBlock T20 (TBS) Blocking Buffer (Thermo cat #37536) and 50 ul/well was added to their respective MSD 384-well streptavidin plates (Meso Scale Discovery cat #L21SA-5) and incubated on a shaker for 30 min at RT. The plates were washed 1×80 ul/well 1×PBST and crude Fab lysates from E. coli expressions in 96-well plates were stamped into the 384-well assay plates in duplicate and incubated on a shaker for 1 hour at RT. The assay plates were washed 1×80 ul/well 1×PBST and 6 nM of SULFO-TAG Anti-human/NHP Kappa Antibody (Meso Scale cat #D20TF-6) added at 10 ul/well, and the plates incubated on a shaker for 1 hour at RT. The plates were washed 2×80 ul/well 1×PBST and 35 ul/well of 1×MSD Read Buffer T (Meso Scale cat #R92TC-1) added to each well and the plates analyzed on an MSD Sector 5600 plate reader. […]

T2 sequence (scFv, as listed by the source limits assumed): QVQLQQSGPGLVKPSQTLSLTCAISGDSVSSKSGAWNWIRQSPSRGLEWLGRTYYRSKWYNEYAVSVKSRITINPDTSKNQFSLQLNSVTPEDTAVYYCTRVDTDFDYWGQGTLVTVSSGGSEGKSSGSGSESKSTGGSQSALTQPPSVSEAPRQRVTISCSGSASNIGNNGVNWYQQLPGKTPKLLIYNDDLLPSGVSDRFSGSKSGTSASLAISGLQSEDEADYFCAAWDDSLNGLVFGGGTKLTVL
T1 sequence (chain, as listed by the source limits assumed): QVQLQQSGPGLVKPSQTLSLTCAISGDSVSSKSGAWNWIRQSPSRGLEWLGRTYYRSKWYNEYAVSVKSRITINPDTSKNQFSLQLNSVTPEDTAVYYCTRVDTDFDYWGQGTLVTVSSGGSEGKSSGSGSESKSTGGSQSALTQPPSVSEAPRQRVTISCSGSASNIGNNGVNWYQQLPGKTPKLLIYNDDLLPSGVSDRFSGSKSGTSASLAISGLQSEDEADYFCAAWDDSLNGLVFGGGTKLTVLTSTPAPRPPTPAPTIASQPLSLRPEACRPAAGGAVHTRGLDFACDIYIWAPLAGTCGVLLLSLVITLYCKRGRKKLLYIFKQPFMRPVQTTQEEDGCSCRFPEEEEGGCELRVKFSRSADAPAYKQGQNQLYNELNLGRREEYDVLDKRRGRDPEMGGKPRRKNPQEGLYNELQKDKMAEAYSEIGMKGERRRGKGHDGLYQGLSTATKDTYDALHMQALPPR
T3 sequence (scFv, as listed by the source limits assumed): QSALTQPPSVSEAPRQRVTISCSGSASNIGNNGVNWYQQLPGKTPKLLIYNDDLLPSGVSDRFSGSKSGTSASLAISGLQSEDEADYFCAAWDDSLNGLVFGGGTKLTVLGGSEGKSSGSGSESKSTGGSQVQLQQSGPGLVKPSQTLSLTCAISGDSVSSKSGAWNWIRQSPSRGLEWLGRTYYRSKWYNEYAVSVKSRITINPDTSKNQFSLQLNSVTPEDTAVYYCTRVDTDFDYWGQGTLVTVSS

B1: recombinant phycoerythrin-conjugated A003B192 (antibody, mouse IgG2a, kappa, V domains shown)
VH: QVQLVQSGAEVKKPGSSVKVSCKASGGTFKSDAISWVRQAPGQGLEWMGGIRPNEGNAEYAQKFQGRVTITADESTSTAYMELSSLRSEDTAVYYCARGRYGAYRLVYYAFDYWGQGTLVTVSS
VL: not shown
modifications: antibody conjugated to recombinant phycoerythrin (rPE), 1:1 PE:antibody; site of attachment not stated
notes: also called A003B192 conjugated to rPE; PE-antibody conjugate
binding result [1]: binds

B2: A003B192 (antibody, mouse IgG2a, kappa, V domains shown)
VH: B1 VH
VL: not shown
notes: also called anti-idiotypic antibody A003B192; HC construct PBD000109791 / LC construct PBD00098715
Kd [2]: 0.04 nM and 0.037 nM | Kd [3]: 1.6 nM and 1.61 nM | EC50 (read off the curve) [4]: ~0.02 µg/mL

B3: A003B274 (antibody, mouse IgG2a, kappa, V domains shown)
VH: QVQLVQSGAEVKKPGSSVKVSCKASGGTFKSYAISWVRQAPGQGLEWMGYISPESGTANYAQKFQGRVTITADESTSTAYMELSSLRSEDTAVYYCARERYYYGYRRYRYYGMDVWGQGTLVTVSS
VL: not shown
notes: also called anti-idiotypic antibody A003B274; HC construct PBD000109922 / LC construct PBD00098715
Kd [2]: 0.23 nM and 0.226 nM | EC50 (read off the curve) [4]: ~0.04 µg/mL

B4: CL002588468 (monoclonal Fab, parent clone for the VH and VL in A003B192) (Fab, V domains shown)
VH: B1 VH
VL: not shown
notes: Soluble human Fab in crude E. coli lysate
signal ratio of CD9B503 over CD9B504 [5]: 10

B5: CL002588437 (monoclonal Fab, parent clone for the VH and VL in A003B274) (Fab, V domains shown)
VH: B3 VH
VL: not shown
notes: as for B4
signal ratio of CD9B503 over CD9B504 [5]: 10
